No end group written: not given here.
B1: S374: 17-(Ald-GSLDESFYDWFERQLGKK)2 (peptide)
peptide: XGSLDESFYDWFERQLGKK
modifications: N-terminal Ald (aldehyde from periodate oxidation of a serine); the two chains joined N-N through chemical linker 17 of Table 3
notes: also called synthetic RP9 homodimer S374
B2: RP9 (peptide)
peptide: GSLDESFYDWFERQLGKK
modifications: also: biotin (b-RP9) or fluorescein (FITC-RP9) label where used, site not given here
notes: also called S371; b-RP9
B3: E8 (D120) (peptide)
peptide: GGTVWPGYEWLRNA
B4: H2C (peptide)
peptide: FHENFYDWFVQRVSKK
notes: also called D117

Key:
[1] = biological target: T1, human insulin receptor (HIR), purified from transfected cells after solubilization with Triton X-100 (human, UniProt P06213 28-1382, limits assumed); assay: 125I-insulin competition on HIR
T1 construct: also called WGA-purified recombinant human insulin receptor

[2] = biological target: human insulin receptor (HIR) (human, UniProt P06213 28-1382, limits assumed); assay: RRA, 125I-insulin competition, HIR
[3] = biological target: T2, soluble HIR ectodomain (sIR) (human, UniProt P06213-2 28-944, limits assumed); assay: FP competition vs FITC-RP9, sIR
T2 construct: extracellular domain
Text: Fluorescence polarization assays (FP) were used for peptide competition studies.

[4] = biological target: T3, soluble human insulin receptor-immunoglobulin heavy chain chimera (sIR-Fc) (human, UniProt P06213 28-956, limits assumed, Eu3+ label (LANCE) in the TR-FRET assays); assay: TR-FRET competition vs b-RP9, sIR-Fc
T3 construct: extracellular domain; construct of Bass et al., 1996; also called HIR-immunoglobulin heavy chain chimera; not shown: immunoglobulin heavy chain constant domains
Text: Time-resolved fluorescence resonance energy transfer assays (TR-FRET) were used for peptide competition studies.
This was used to determine IC₅₀ values.

[5] = biological target: T3, soluble human insulin …; assay: TR-FRET competition vs b-S175, sIR-Fc
Description: (§1) The TR-FRET assays were performed in a 384-well white microplate with a final volume of 30 μl.

[6] = biological target: T3, soluble human insulin …; assay: FP competition vs FITC-RP9, sIR-Fc
[7] = biological target: T3, soluble human insulin …; assay: TR-FRET competition vs b-S175, sIR-Fc (column as given)
Description: as §1

| Binder | binding result [1] | IC50 [2] [nM] | IC50 [3] [nM] | IC50 [4] [nM] | IC50 [5] [nM] | IC50 [6] [nM] | IC50 [7] [nM] |
| --- | --- | --- | --- | --- | --- | --- | --- |
| B1 | binds | – | – | – | – | – | – |
| B2 | – | 44 | 0.03 | 42 | 6 | 10 | – |
| B3 | – | 2200 | – | – | – | 207 | 755 |
| B4 | – | 700 | 37 | 1630 | 410 | 50 | – |

Reference: patent US20030236190A1 (published 2003)
